Legend:
[1] = target: T1, recombinant human GPC3 (huGPC3) (R&D Systems) (human, UniProt P51654 25-559); experiment: dual-binding ELISA: huGPC3 coated, fusion titrated, detection with biotinylated huCD137-His
T1 construct: also called biotinylated huGPC3
Protocol: (§1) Recombinant huCD137-His (R&D Systems) in PBS (1 μg/mL) was coated overnight on microtiter plates at 4° C. The plates were washed five times after each incubation step with 100 μL PBS-0.05% T. The plates were blocked with PBS-0.1% T-2% BSA for 1 h at room temperature and subsequently washed again. Different concentrations of tested fusion proteins were added to the wells and incubated for 1 h at room temperature, followed by a wash step. Subsequently, biotinylated huGPC3 was added at a constant concentration of 1 μg/mL in PBS-0.1% T-2% BSA for 1 h. After washing, a 1:5000 dilution of ExtrAvidin-HRP (Sigma-Aldrich) in PBS-0.1% T-2% BSA was added to the wells and incubated for 1 h. After an additional wash step, fluorogenic HRP substrate (QuantaBlu, Thermo) was added to each well, and the fluorescence intensity was detected using a fluorescence microplate reader.
The dual binding of fusion proteins was also tested with a reverse set-up where recombinant huGPC3 (R&D Systems) was coated on microtiter plates at 1 μg/ml and the bound fusion proteins were detected via the addition of 5 μg/mL biotinylated huCD137-His.
(§2) Exemplary dual binding data are shown in FIG. 3, together with the fit curves resulting from a 1:1 sigmoidal binding fit, where the EC₅₀ value and the maximum signal were free parameters, and the slope was fixed to unity.

[2] = target: T2, human GPC3 expressed on cells (SK-Hep1::huGPC3; HepG2, Hep3B and MKN-45 tumor cells) (human, UniProt P51654 25-554); experiment: flow cytometry on HepG2 tumor cells (GPC3 high)
T2 construct: whole, on cells; also called GPC3-positive tumor cells; human GPC3-expressing cells
T2 sequence (P51654 25-554 limits assumed): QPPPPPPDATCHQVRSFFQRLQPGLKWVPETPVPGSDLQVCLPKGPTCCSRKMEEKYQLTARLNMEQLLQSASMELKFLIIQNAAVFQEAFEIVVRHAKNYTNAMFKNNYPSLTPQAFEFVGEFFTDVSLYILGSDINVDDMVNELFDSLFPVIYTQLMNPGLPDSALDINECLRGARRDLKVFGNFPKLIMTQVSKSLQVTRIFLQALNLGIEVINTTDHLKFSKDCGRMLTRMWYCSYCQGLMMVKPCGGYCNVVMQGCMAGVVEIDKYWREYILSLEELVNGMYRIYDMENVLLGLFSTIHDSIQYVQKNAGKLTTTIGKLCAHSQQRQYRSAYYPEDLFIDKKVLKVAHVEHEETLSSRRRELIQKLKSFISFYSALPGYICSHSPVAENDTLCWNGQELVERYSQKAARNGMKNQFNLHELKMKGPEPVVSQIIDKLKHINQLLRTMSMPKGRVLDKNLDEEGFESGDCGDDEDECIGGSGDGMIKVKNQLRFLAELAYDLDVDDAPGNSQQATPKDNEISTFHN
Protocol: (§3) 5×10⁴ cells per well were incubated for 1 h in ice-cold PBS containing 5% fetal calf serum (PBS-FCS). A dilution series of the testing molecule were added to the cells and incubated for 1 h on ice. Cells were washed twice with PBS and then incubated with a goat anti-hlgG Alexa647-labeled antibody or goat anti-hlgG Alexa488-labeled antibody for 30 min on ice. Cells were subsequently washed and analyzed using iQue Flow cytometer (Intellicyte Screener). Mean geometric fluorescent signals were plotted and fitted with Graphpad software. The geometric means of the fluorescence intensity were used to calculate EC₅₀ values using a four-parameter logistic regression with bottom fixed to background.
For flow cytometric analysis, tumor cell lines with different GPC3 expression levels (high to moderate expression: HepG2>Hep3B>MKN-45) and GPC3 negative cell line NCI-N87 were incubated with an exemplary fusion protein SEQ ID NOs: 87 and 82, the GPC3 antibody or the CD137 specific lipocalin mutein (Fc fusion) as included in the fusion protein (SEQ ID NOs: 81 and 82 and SEQ ID NO: 98, respectively), a reference CD137 antibody SEQ ID NOs: 26 and 27, or an isotype control (SEQ ID NO: 24 and 25), and detected using a fluorescently labeled anti-human IgG antibody as described in Example 6.

[3] = target: T3, huCD137-His (recombinant human CD137 with C-terminal polyhistidine tag, R&D Systems) (human, UniProt Q07011 24-186); experiment: dual-binding ELISA: huCD137-His coated, fusion titrated, detection with biotinylated huGPC3
T3 construct: also called biotinylated huCD137-His; not shown: C-terminal polyhistidine tag
Protocol: as §1, §2

[4] = target: T1, recombinant human GPC3 (huGPC3) (R&D …); experiment: SPR (Biacore T200), binder captured by anti-human IgG Fc, huGPC3 as analyte, 1:1 model
Protocol: The anti-human IgG Fc antibody (GE Healthcare) was immobilized on a CM5 sensor chip using standard amine chemistry: the carboxyl groups on the chip were activated using 1-ethyl-3-(3-dimethylaminopropyl)-carbodiimide (EDC) and N-hydroxysuccinimide (NHS). Subsequently, anti-human IgG Fc antibody solution (GE Healthcare) at a concentration of 25 μg/mL in 10 mM sodium acetate (pH 5.0) was applied at a flow rate of 5 μL/min until an immobilization level of 6000-10000 resonance units (RU) was achieved. Residual non-reacted NHS-esters were blocked by passing a solution of 1M ethanolamine across the surface. The reference channel was treated in an analogous manner. Subsequently, testing fusion proteins (SEQ ID NOs: 87 and 82 and CD137Ac1-Fusion 1) or the GPC3 antibody as included in the fusion protein (SEQ ID NOs: 81 and 82) at 0.2 μg/ml in HBS-EP+ buffer was captured by the anti-human IgG-Fc antibody at the chip surface for 180 s at a flow rate of 10 μL/min. After each capture step, the needle was washed.
The binding assay was carried out with a contact time of 180 s, a dissociation time of 900 s, and a flow rate of 30 μL/min. After each injection, the needle was cleaned with 40 mM NaOH+20% isopropanol. All measurements were performed at 25° C. […] Prior to the protein measurements, three startup cycles were performed for conditioning purposes. Data were evaluated with Biacore T200 Evaluation software (v2.0). Double referencing was used and the 1:1 binding model was used to fit the raw data.

[5] = target: T4, human CD137 expressed on cells (Flp-In-CHO::huCD137; NFkB-luc2/CD137 Jurkat cells) (human, UniProt Q07011 24-255); experiment: flow cytometry, CHO cells transfected with human CD137, detection labelled anti-human IgG, GeoMean BL1-H [lower graph]
T4 construct: whole, on cells; also called human CD137-expressing cells
T4 sequence (Q07011 24-255): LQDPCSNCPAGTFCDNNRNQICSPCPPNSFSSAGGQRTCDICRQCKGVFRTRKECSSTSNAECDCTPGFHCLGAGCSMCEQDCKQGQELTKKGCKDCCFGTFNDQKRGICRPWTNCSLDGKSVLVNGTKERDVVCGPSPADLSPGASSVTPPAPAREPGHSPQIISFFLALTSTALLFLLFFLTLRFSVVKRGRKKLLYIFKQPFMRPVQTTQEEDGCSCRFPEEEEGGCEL
Protocol: For flow cytometric analysis, respective cell lines were incubated with an exemplary fusion protein (SEQ ID NOs: 87 and 82), the GPC3 antibody or the CD137 specific lipocalin mutein (Fc fusion) as included in the fusion protein (SEQ ID NOs: 81 and 82 and SEQ ID NO: 98, respectively), a reference CD137 antibody SEQ ID NOs: 26 and 27, or an isotype control (SEQ ID NOs: 24 and 25) and detected using a fluorescently labeled anti-human IgG antibody in FACS analysis as described in the following:
as §3

T1 sequence (P51654 25-559 limits assumed): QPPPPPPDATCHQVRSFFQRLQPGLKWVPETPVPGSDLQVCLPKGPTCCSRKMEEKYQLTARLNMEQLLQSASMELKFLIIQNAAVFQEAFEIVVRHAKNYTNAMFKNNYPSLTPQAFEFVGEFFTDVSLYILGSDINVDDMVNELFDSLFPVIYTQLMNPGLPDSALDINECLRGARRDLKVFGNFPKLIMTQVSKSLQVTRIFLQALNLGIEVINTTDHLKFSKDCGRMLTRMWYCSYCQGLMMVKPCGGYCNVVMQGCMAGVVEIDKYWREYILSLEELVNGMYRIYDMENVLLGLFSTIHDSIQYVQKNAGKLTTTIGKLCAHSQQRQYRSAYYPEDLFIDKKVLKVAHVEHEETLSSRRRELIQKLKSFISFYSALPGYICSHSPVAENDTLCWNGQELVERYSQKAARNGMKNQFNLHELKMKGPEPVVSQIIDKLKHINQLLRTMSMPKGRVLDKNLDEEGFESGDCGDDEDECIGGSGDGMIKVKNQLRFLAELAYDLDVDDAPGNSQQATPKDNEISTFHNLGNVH

EC50 [1]: 0.98 nM
EC50 [2]: 20.6 nM
EC50 [3]: 4.2 nM
Kd [4]: 0.657 nM
koff [4]: 0.000269 s⁻¹
kon [4]: 409000 M⁻¹ s⁻¹
EC50 (read off the curve) [5]: ~20 nM
B1: fusion protein SEQ ID NOs: 87 and 82 (bispecific antibody, human IgG4 S228P, kappa, F234A L235A)
heavy: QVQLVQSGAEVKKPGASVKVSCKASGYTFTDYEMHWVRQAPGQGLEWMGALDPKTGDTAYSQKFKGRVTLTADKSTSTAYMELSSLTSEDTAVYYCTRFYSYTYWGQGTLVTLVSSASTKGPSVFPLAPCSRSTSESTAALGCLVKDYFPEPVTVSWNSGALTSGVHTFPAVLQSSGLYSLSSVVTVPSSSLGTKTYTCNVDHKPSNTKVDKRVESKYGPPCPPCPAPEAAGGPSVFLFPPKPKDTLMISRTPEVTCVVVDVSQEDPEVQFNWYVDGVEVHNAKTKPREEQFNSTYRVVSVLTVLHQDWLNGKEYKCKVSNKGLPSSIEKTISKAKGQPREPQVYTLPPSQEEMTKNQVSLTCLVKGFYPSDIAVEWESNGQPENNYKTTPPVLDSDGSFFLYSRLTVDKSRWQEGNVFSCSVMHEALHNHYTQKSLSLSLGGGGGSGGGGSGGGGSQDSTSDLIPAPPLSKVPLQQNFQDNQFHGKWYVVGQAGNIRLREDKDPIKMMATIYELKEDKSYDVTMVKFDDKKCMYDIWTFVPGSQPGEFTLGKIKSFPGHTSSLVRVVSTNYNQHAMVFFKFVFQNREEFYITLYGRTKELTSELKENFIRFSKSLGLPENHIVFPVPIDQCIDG
light: DVVMTQSPLSLPVTPGEPASISCRSSQSLVHSNRNTYLHWYLQKPGQSPQLLIYKVSNRFSGVPDRFSGSGSGTDFTLKISRVEAEDVGVYYCSQNTHVPPTFGQGTKLEIKRTVAAPSVFIFPPSDEQLKSGTASVVCLLNNFYPREAKVQWKVDNALQSGNSQESVTEQDSKDSTYSLSSTLTLSKADYEKHKVYACEVTHQGLSSPVTKSFNRGEC
notes: also called exemplary fusion protein
